Broadly, the Kd is the equilibrium constant for the complex coming apart. One may read the stoichiometry N as a count of units in the complex or per binding partner. For orientation: koff means the rate constant with which the complex falls apart. Broadly, the kon is the rate constant with which the complex forms.

Assay [1] concerns the target Pv12 full-length ectodomain, human IgG1-Fc-tagged (Plasmodium vivax). Put plainly: BLI; Gator system, anti-human IgG Fc (HFC) probes; Fc-tagged protein immobilised (10 uM, 120 s); His-tagged protein 1.5 to 100 uM, 300 s association, 600 s dissociation in PBS; 1:1 global fit.
Assay [2] has as its target Pv41 full-length ectodomain, His-tagged (Plasmodium vivax). Put plainly: native gel or EMSA; blue native PAGE, 4%-16%, purified His-tagged recombinant protein, Coomassie stain. In general terms: A gel shift assay detects complexes by their altered migration in electrophoresis.
Assay [3] concerns the target Pv41-Fc (PVX_000995, ectodomain E22-E384, human IgG1 Fc fusion) (Plasmodium vivax) (UniProt A5KAP6). Put plainly: BLI; Gator system, anti-human IgG Fc (HFC) probes; Fc-tagged protein immobilised (10 µM, 120 s); His-tagged protein in serial dilution (1.5 to 100 µM by the methods; 1.5625-100 nM in the key of Fig. S3C), association 300 s, dissociation 600 s in PBS; 1:1 global fit; two experiments with different batches of protein. On the technique in general: In BLI a coated tip is dipped into the sample, and binding shifts an interference pattern.

In assay [4] the target is Pk12-Fc (PKNH_1137300, ectodomain F24-S344, human IgG1 Fc fusion) (Plasmodium knowlesi). The description is as above.
Assay [5] concerns the target Pv12-Fc (PVX_113775, ectodomain F24-A339, human IgG1 Fc fusion) (Plasmodium vivax) (UniProt A5K1W7). The description is as above.
The target in assay [6] is Pv41 full-length ectodomain, human IgG1-Fc-tagged (Plasmodium vivax). Put plainly: BLI; Gator system, anti-human IgG Fc (HFC) probes; Fc-tagged protein immobilised (10 uM, 120 s); His-tagged protein 1.5 to 100 uM, 300 s association, 600 s dissociation in PBS; 1:1 global fit.
Assay [7] concerns the target Pv12 full-length ectodomain, His-tagged (Plasmodium vivax). Put plainly: native gel or EMSA; blue native PAGE, 4%-16%, purified His-tagged recombinant protein, Coomassie stain.
Assay [8] has as its target T1, PvDBP-RII (194-521 aa.)-8His (Plasmodium vivax, UniProt P22290 194-521).
T1 construct: also called PvDBPII-His; PvDBP-RII-His; source: HEK293-EBNA1 cells, transiently transfected, purified from culture supernatant (Ni-NTA); not shown: 8xHis, C-terminal, kept
Put plainly: BLI; Gator system, anti-human IgG Fc (HFC) probes; Fc-tagged protein immobilised (10 µM, 120 s); His-tagged protein in serial dilution (1.5 to 100 µM by the methods; 1.5625-100 nM in the key of Fig. S3C), association 300 s, dissociation 600 s in PBS; 1:1 global fit; two experiments with different batches of protein. The settings on record: both partners purified.

For assay [9], the target named is T2, P. vivax Duffy-binding protein region II, His-tagged (194-521 aa) (Plasmodium vivax, UniProt P22290 194-521).
T2 construct: also called PvDBPII-His; PvDBP-RII-His; source: HEK293-EBNA1 (HEK293E), transiently transfected, purified from culture supernatant (Ni-NTA); not shown: 8xHis, C-terminal, kept
Put plainly: BLI; Gator system, anti-human IgG Fc (HFC) probes; Fc-tagged protein immobilised (10 uM, 120 s); His-tagged protein 1.5 to 100 uM, 300 s association, 600 s dissociation in PBS; 1:1 global fit. The settings on record: both partners purified.

Several values for one entry are separate records, joined by “and”; a condition that tells them apart may be missing. Equal entries are not always repeated.

As to “Pv41 full-length ectodomain, His-tagged (domain or fragment)”, the Kd in [1] was 14.2 nM. The stoichiometry N in [2] worked out at 2.

Regarding “Pk12-8His (PKNH_1137300, ectodomain F24-S344) (domain or fragment)”, in assay [3], the dissociation constant Kd was 184 nM and 160 nM; the koff is 0.0485 s⁻¹ and 0.0454 s⁻¹; the kon was 263000 M⁻¹ s⁻¹ and 284000 M⁻¹ s⁻¹.

As to “Pv12-8His (PVX_113775, ectodomain F24-A339) (from UniProt A5K1W7 24-339) (domain or fragment)”, in assay [3], the Kd was 0.555 nM and 0.512 nM; the koff is 0.000174 s⁻¹ and 0.000156 s⁻¹; the kon is 314000 M⁻¹ s⁻¹ and 305000 M⁻¹ s⁻¹.

Turning to “PvMP38 (PVX_110945), full-length ectodomain, His-tagged (domain or fragment)”, the Kd in assay [1] was 2.46 nM.

With “PvMP38-8His (PVX_110945, full-length ectodomain D28-K343) (domain or fragment)”, the Kd is 0.833 nM and 0.96 nM in [4]; 2.39 nM and 2.56 nM in [5].

Take “Pv12 full-length ectodomain, His-tagged (domain or fragment)”: the Kd in assay [6] was determined as 0.53 nM. In [7], the stoichiometry N is 2.

Consider “Pv41-8His (PVX_000995, ectodomain E22-E384) (from UniProt A5KAP6 22-384) (domain or fragment)”, for which the Kd in assay [4] was 19 nM and 11.4 nM. Also, in assay [5], the equilibrium dissociation constant (Kd) is 12.2 nM and 16.1 nM; the koff was 0.000662 s⁻¹ and 0.000803 s⁻¹; the kon was 54300 M⁻¹ s⁻¹ and 50000 M⁻¹ s⁻¹.

B1: hDARC-Fc (human DARC M1-P63, human IgG1 Fc fusion) (Fc fusion, UniProt Q16570-1 1-63, looked up)
chain: MGNCLHRAELSPSTENSSQLDFEDVWNSSYGVNDSFPDGDYGANLEAAAPCHSCNLLDDSALP
notes: Duffy antigen/receptor for chemokines (DARC), human, NP_002027, region expressed M1-P63; also called human DARC-Fc; source: HEK293-EBNA1 cells, transiently transfected, purified from culture supernatant (HiTrap Protein G HP)
As to B1, the Kd in assay [8] is 3 nM and 2.39 nM.

B2: human DARC-Fc (1-63 aa) (Fc fusion, UniProt Q16570 1-63, looked up)
chain: B1 chain
notes: Duffy antigen/receptor for chemokines (DARC), human, residues 1-63; also called hDARC; source: HEK293-EBNA1 (HEK293E), transiently transfected, purified from culture supernatant (Protein G)
B2: in assay [9], the Kd was found to be 2.7 ± 0.43 nM.

The values above are taken from article PMC12077092, “A novel micronemal protein MP38 is involved in the invasion of merozoites into erythrocytes” (mBio, 2025).
